B1: p23 (natural protein, human)
chain: MQPASAKWYDRRDYVFIEFCVEDSKDVNVNFEKSKLTFSCLGGSDNFKHLNEIDLFHCIDPNDSKHKRTDRSILCCLRKGESGQSWPRLTKERAKLNWLSVDFNNWKDWEDDSDEDMSNFDRFSEMMNNMGGDEDVDLPEVDGADDDSQDSDDEKMPDLE
B2: CHIP E3 ubiquitin ligase (enzyme, human, UniProt Q9UNE7 1-303, looked up)
chain: MKGKEEKEGGARLGAGGGSPEKSPSAQELKEQGNRLFVGRKYPEAAACYGRAITRNPLVAVYYTNRALCYLKMQQHEQALADCRRALELDGQSVKAHFFLGQCQLEMESYDEAIANLQRAYSLAKEQRLNFGDDIPSALRIAKKKRWNSIEERRIHQESELHSYLSRLIAAERERELEECQRNHEGDEDDSHVRAQQACIEAKHDKYMADMDELFSQVDEKRKKRDIPDYLCGKISFELMREPCITPSGITYDRKDIEEHLQRVGHFDPVTRSPLTQEQLIPNLAMKEVIDAFISENGWVEDY
B3: MBP-tagged glucocorticoid receptor DNA binding domain, hinge and ligand binding domain (MBP-GR DBD-LBD, 418-777, F602S) (domain or fragment, UniProt P04150 418-777, looked up)
chain: PKLCLVCSDEASGCHYGVLTCGSCKVFFKRAVEGQHNYLCAGRNDCIIDKIRRKNCPACRYRKCLQAGMNLEARKTKKKIKGIQQATTGVSQETSENPGNKTIVPATLPQLTPTLVSLLEVIEPEVLYAGYDSSVPDSTWRIMTTLNMLGGRQVIAAVKWAKAIPGFRNLHLDDQMTLLQYSWMSLMAFALGWRSYRQSSANLLCFAPDLIINEQRMTLPCMYDQCKHMLYVSSELHRLQVSYEEYLCMKTLLLLSSVPKDGLKSQELFDEIRMTYIKELGKAIVKREGNSSQNWQRFYQLTKLLDSMHEVVENLLNYCFQTFLDKTMSIEFPEMLAEIITNQIPKYSNGNIKKLLFHQK
B4: MBP-tagged glucocorticoid receptor ligand-binding domain (MBP-GR LBD, F602S, 520-777) (domain or fragment, UniProt P04150 520-777, looked up)
chain: IVPATLPQLTPTLVSLLEVIEPEVLYAGYDSSVPDSTWRIMTTLNMLGGRQVIAAVKWAKAIPGFRNLHLDDQMTLLQYSWMSLMAFALGWRSYRQSSANLLCFAPDLIINEQRMTLPCMYDQCKHMLYVSSELHRLQVSYEEYLCMKTLLLLSSVPKDGLKSQELFDEIRMTYIKELGKAIVKREGNSSQNWQRFYQLTKLLDSMHEVVENLLNYCFQTFLDKTMSIEFPEMLAEIITNQIPKYSNGNIKKLLFHQK

How the values were obtained:
[1] = molecular target: B4; test: SEC
Hsp90a (wild-type Hsp90) [2] = molecular target: T1, Hsp90a (wild-type Hsp90) (human, UniProt P07900 1-732); test: cryo-EM structure
Hop = Hop (human, UniProt P31948 1-543); test: pull-down
D93N Hsp90 = D93N Hsp90 (human, UniProt P07900 1-732, D93N); test: pull-down
Hsp90a (wild-type Hsp90) [3] = molecular target: T1, Hsp90a (wild-type Hsp90); test: SEC

Binder	binding result [1]	binding result (Hsp90a (wild-type Hsp90) [2])	binding result (Hop)	binding result (D93N Hsp90)	binding result (Hsp90a (wild-type Hsp90) [3])
B1	binds	binds			
B2		binds			
B3		binds			
B4			binds	binds	binds
